The results in this text go back to patent publication US5684129.

pKd: −log10 of the molar value.

For assay [1], the target named is Type 1 human interferon receptor complex (human) (UniProt P17181).
For assay [2] the target is unchanged. The assay can be described thus: 125I-ligand binding to T98G cells at +4° C., Scatchard analysis, high affinity component.

For the substance IFN-alphaCon1 (ligand), the antiviral specific activity (EMCV on T98G cells) in assay [1] worked out at 3e+09 U/mg protein. Besides, the pKd in assay [2] was 11.11.

The substance IFN-alpha1 Nδ4 (ligand) gave an antiviral specific activity (EMCV on T98G cells) in assay [1] of 7.1e+06 U/mg protein.
